Test results as given in the supplement of paper PMC7877785.
± gives the uncertainty stated by the source.

Experiment: self-splicing fitness, log relative to wild type (ln ratio); higher = more splicing; Tetrahymena group I intron in knt gene, E. coli kanamycin selection, DiMSum; sequences stand for … in CUCUCU…GGAGGGAAAAGUUAUCAGGCAUGCACCUGGUAGCUAGUCUUUAAACCAAUAGAUUGCAUCGGUUUAAAAGGCAAGACCGUCAAAUUGCGGGAAAGGGGUCAACAGCCGUUCAGUACCAAGUCUCAGGGGAAACUUUGAGAUGGCCUUGCAAAGGGUAUGGUAAUAAGCUGACGGACAUGGUCCUAACCACGCAGCCAAGUCCUAAGUCAACAGAUCUUCUGUUGAUAUGGAUGCAGUUCACAGACUAAAUGUCGGUCGGGGAAGAUGUAUUCUUCUCAUAAGAUAUAGUCGGACCUCUCCUUAAUGGGAGCUAGCGGAUGAAGUGAUGCAACACUGGAGCCGCUGGGAACUAAUUUGUAUGCGAAAGUAUAUUGAUUAGUUUUGGAGUACUCGUGGUCG
Outline: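 The eight P1ex-region nucleotides of an intron in the knt kanamycin-resistance gene on pET-22b(+) were all randomised and the library put into E. coli BL21(DE3). Six replicate transformations were grown overnight at 37°C or 30°C on LB agar with or without 25 μg/mL kanamycin, together with 100 μg/mL carbenicillin, 50 μM IPTG and 0.2% rhamnose. Colonies were pooled and amplicon-sequenced on an Illumina HiSeq 2500. Fitness from DiMSum is the error-weighted combination of wild-type-normalised replicate fold changes, kanamycin over none.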

AGAGAGCAAUAUUACGCUAG
self-splicing fitness (ln) (30 °C): -2.84 ± 0.28 | self-splicing fitness (ln) (37 °C): -2.91 ± 0.38

AGAGAGCAAUAUUACGCUCU
self-splicing fitness (ln) (30 °C): -2.47 ± 0.47

AGAGAGCAAUAUUACGGAAC
self-splicing fitness (ln) (30 °C): -2.74 ± 0.38 | self-splicing fitness (ln) (37 °C): -1.83 ± 0.4

AGAGAGCAAUAUUACGGCUG
self-splicing fitness (ln) (30 °C): -0.227 ± 0.24 | self-splicing fitness (ln) (37 °C): -2.26 ± 0.49

AGAGAGCAAUAUUACGGGAG
self-splicing fitness (ln) (30 °C): -2.6 ± 0.4

AGAGAGCAAUAUUACGGGUG
self-splicing fitness (ln) (30 °C): -3.31 ± 0.32

AGAGAGCAAUAUUACGUACC
self-splicing fitness (ln) (30 °C): -1.69 ± 0.28 | self-splicing fitness (ln) (37 °C): -0.0438 ± 0.38

AGAGAGCAAUAUUACGUAUU
self-splicing fitness (ln) (30 °C): -4.03 ± 0.35 | self-splicing fitness (ln) (37 °C): -3.1 ± 0.3

AGAGAGCAAUAUUACGUGCG
self-splicing fitness (ln) (30 °C): -1.98 ± 0.16 | self-splicing fitness (ln) (37 °C): -1.79 ± 0.26

AGAGAGCAAUAUUACGUGGA
self-splicing fitness (ln) (30 °C): -3.15 ± 0.4 | self-splicing fitness (ln) (37 °C): -2.3 ± 0.5

AGAGAGCAAUAUUACGUUAC
self-splicing fitness (ln) (30 °C): -2.67 ± 0.22 | self-splicing fitness (ln) (37 °C): -2.19 ± 0.42

AGAGAGCAAUAUUACGUUGU
self-splicing fitness (ln) (30 °C): -3.79 ± 0.21 | self-splicing fitness (ln) (37 °C): -3.07 ± 0.2

AGAUAGCAAUAUUACGAACA
self-splicing fitness (ln) (30 °C): -1.15 ± 0.11 | self-splicing fitness (ln) (37 °C): -0.00294 ± 0.12

AGAUAGCAAUAUUACGACGA
self-splicing fitness (ln) (30 °C): -0.422 ± 0.095 | self-splicing fitness (ln) (37 °C): -0.749 ± 0.085

AGAUAGCAAUAUUACGACUU
self-splicing fitness (ln) (30 °C): -0.125 ± 0.065 | self-splicing fitness (ln) (37 °C): -0.304 ± 0.086

AGAUAGCAAUAUUACGAUCU
self-splicing fitness (ln) (30 °C): -1.53 ± 0.14 | self-splicing fitness (ln) (37 °C): -0.462 ± 0.17

AGAUAGCAAUAUUACGCGAU
self-splicing fitness (ln) (30 °C): -2.53 ± 0.25 | self-splicing fitness (ln) (37 °C): -2.15 ± 0.27

AGAUAGCAAUAUUACGCGUA
self-splicing fitness (ln) (30 °C): -1.2 ± 0.12 | self-splicing fitness (ln) (37 °C): -1.41 ± 0.13

AGAUAGCAAUAUUACGCUCG
self-splicing fitness (ln) (30 °C): -0.0589 ± 0.11 | self-splicing fitness (ln) (37 °C): -0.37 ± 0.12

AGAUAGCAAUAUUACGCUCU
self-splicing fitness (ln) (30 °C): -3.31 ± 0.23 | self-splicing fitness (ln) (37 °C): -1.46 ± 0.21

AGAUAGCAAUAUUACGGAUG
self-splicing fitness (ln) (30 °C): -2.96 ± 0.19 | self-splicing fitness (ln) (37 °C): -2.3 ± 0.28

AGAUAGCAAUAUUACGGCGA
self-splicing fitness (ln) (30 °C): -0.537 ± 0.14 | self-splicing fitness (ln) (37 °C): -0.0635 ± 0.14

AGAUAGCAAUAUUACGGCGG
self-splicing fitness (ln) (30 °C): -0.92 ± 0.12 | self-splicing fitness (ln) (37 °C): -1.04 ± 0.15

AGAUAGCAAUAUUACGGCUC
self-splicing fitness (ln) (30 °C): -1.14 ± 0.32 | self-splicing fitness (ln) (37 °C): -0.656 ± 0.37

AGAUAGCAAUAUUACGGGGU
self-splicing fitness (ln) (30 °C): -3.5 ± 0.16 | self-splicing fitness (ln) (37 °C): -2.26 ± 0.13

AGAUAGCAAUAUUACGGUAG
self-splicing fitness (ln) (30 °C): -3.93 ± 0.37 | self-splicing fitness (ln) (37 °C): -1.69 ± 0.21

AGAUAGCAAUAUUACGUACA
self-splicing fitness (ln) (30 °C): -1.26 ± 0.055 | self-splicing fitness (ln) (37 °C): -0.0902 ± 0.08

AGAUAGCAAUAUUACGUCAC
self-splicing fitness (ln) (30 °C): -1.17 ± 0.27 | self-splicing fitness (ln) (37 °C): -2.78 ± 0.48

AGAUAGCAAUAUUACGUCCA
self-splicing fitness (ln) (30 °C): 0.498 ± 0.11 | self-splicing fitness (ln) (37 °C): 0.122 ± 0.18

AGAUAGCAAUAUUACGUGCU
self-splicing fitness (ln) (30 °C): -1.39 ± 0.1 | self-splicing fitness (ln) (37 °C): -0.664 ± 0.12

AGAUAGCAAUAUUACGUGGG
self-splicing fitness (ln) (30 °C): -2.85 ± 0.15 | self-splicing fitness (ln) (37 °C): -2.49 ± 0.19

AGAUAGCAAUAUUACGUGUA
self-splicing fitness (ln) (30 °C): -2.9 ± 0.14 | self-splicing fitness (ln) (37 °C): -1.82 ± 0.12

AGAUAGCAAUAUUACGUUGU
self-splicing fitness (ln) (30 °C): -2.26 ± 0.08 | self-splicing fitness (ln) (37 °C): -2.39 ± 0.11

AGCAAGCAAUAUUACGCCAA
self-splicing fitness (ln) (30 °C): -2.89 ± 0.2 | self-splicing fitness (ln) (37 °C): -1.97 ± 0.14

AGCAAGCAAUAUUACGCCCA
self-splicing fitness (ln) (30 °C): -0.157 ± 0.17 | self-splicing fitness (ln) (37 °C): -0.704 ± 0.22

AGCAAGCAAUAUUACGCGUG
self-splicing fitness (ln) (30 °C): -3.87 ± 0.19 | self-splicing fitness (ln) (37 °C): -3.49 ± 0.27

AGCAAGCAAUAUUACGCUCA
self-splicing fitness (ln) (30 °C): -2.66 ± 0.18 | self-splicing fitness (ln) (37 °C): -1.69 ± 0.15

AGCAAGCAAUAUUACGCUUC
self-splicing fitness (ln) (37 °C): -3.29 ± 0.42

AGCAAGCAAUAUUACGGCCG
self-splicing fitness (ln) (30 °C): -0.219 ± 0.071 | self-splicing fitness (ln) (37 °C): -0.111 ± 0.094

AGCAAGCAAUAUUACGGCUU
self-splicing fitness (ln) (30 °C): -3.17 ± 0.18 | self-splicing fitness (ln) (37 °C): -0.891 ± 0.12

AGCAAGCAAUAUUACGGGCC
self-splicing fitness (ln) (30 °C): -3.26 ± 0.23 | self-splicing fitness (ln) (37 °C): -2.32 ± 0.22

AGCAAGCAAUAUUACGGGCG
self-splicing fitness (ln) (30 °C): -0.538 ± 0.061 | self-splicing fitness (ln) (37 °C): -0.377 ± 0.074

AGCAAGCAAUAUUACGGGGU
self-splicing fitness (ln) (30 °C): -2.45 ± 0.15 | self-splicing fitness (ln) (37 °C): -2 ± 0.12

AGCAAGCAAUAUUACGGGUU
self-splicing fitness (ln) (30 °C): -1.67 ± 0.1 | self-splicing fitness (ln) (37 °C): -2.17 ± 0.14

AGCAAGCAAUAUUACGGUGC
self-splicing fitness (ln) (30 °C): -1.6 ± 0.11 | self-splicing fitness (ln) (37 °C): -3.4 ± 0.22

AGCAAGCAAUAUUACGUCUU
self-splicing fitness (ln) (30 °C): -1.38 ± 0.068 | self-splicing fitness (ln) (37 °C): -0.234 ± 0.074

AGCAAGCAAUAUUACGUGAC
self-splicing fitness (ln) (30 °C): -2.49 ± 0.2 | self-splicing fitness (ln) (37 °C): -1.85 ± 0.27

AGCAAGCAAUAUUACGUUGU
self-splicing fitness (ln) (30 °C): -3.33 ± 0.12 | self-splicing fitness (ln) (37 °C): -2.87 ± 0.14

AGCCAGCAAUAUUACGAAUA
self-splicing fitness (ln) (30 °C): -3.25 ± 0.27 | self-splicing fitness (ln) (37 °C): -2.94 ± 0.3
